Experimental data as given in US20250243257A1.

Target: surface GFP (GFP fused to the PDGF transmembrane domain) [GFP: P42212]
Assay: cell-based or functional assay

With “α-GFP nanobody (LaG16_2) synNotch Gal4VP64 receptor (from UniProt Q01705 1427-1752)” the fraction of T cells with BFP reporter expression at 24 hours was over 50%.
